According to the Human Domainome abundance scans (Beltran et al. 2025):
± gives the uncertainty stated by the source.

B1: Spectrin alpha chain, erythrocytic 1, residues 979 to 1036; numbered along this chain, P02549 (parent)
chain: EQRVMALYDFQARSPREVTMKKGDVLTLLSSINKDWWKVEAADHQGIVPAVYVRRLAH

Variants of: B1
Test: abundance fitness (aPCA) (normalised: wild type 0, dead -1); higher = more abundant; growth selection in yeast, the domain comes from the species named
Conditions: Homo sapiens

| Variant | abundance fitness |
| --- | --- |
| EQRVMALYDFQARSPSEVTMKKGDVLTLLSSINKDWWKVEAADHQGIVPAVYVRRLAH [R16S] | 0.579 ± 0.45 |
| EQRVMALYDFQARSPAEVTMKKGDVLTLLSSINKDWWKVEAADHQGIVPAVYVRRLAH [R16A] | 0.254 ± 0.37 |
| EQRVMALYDFQARCPREVTMKKGDVLTLLSSINKDWWKVEAADHQGIVPAVYVRRLAH [S14C] | -0.571 ± 0.37 |
| EQRVMALYDFQARPPREVTMKKGDVLTLLSSINKDWWKVEAADHQGIVPAVYVRRLAH [S14P] | -0.802 ± 0.19 |
| EQRVMALYDFQARAPREVTMKKGDVLTLLSSINKDWWKVEAADHQGIVPAVYVRRLAH [S14A] | -0.743 ± 0.097 |
| EQRVMALYDFQARRPREVTMKKGDVLTLLSSINKDWWKVEAADHQGIVPAVYVRRLAH [S14R] | -0.364 ± 0.15 |
| EQRVMALYDFQARGPREVTMKKGDVLTLLSSINKDWWKVEAADHQGIVPAVYVRRLAH [S14G] | -0.358 ± 0.14 |
| EQRVMALYDFQARLPREVTMKKGDVLTLLSSINKDWWKVEAADHQGIVPAVYVRRLAH [S14L] | -0.866 ± 0.21 |
| EQRVMALYDFQARDPREVTMKKGDVLTLLSSINKDWWKVEAADHQGIVPAVYVRRLAH [S14D] | 0.134 ± 0.24 |
| EQRVMALYDFQARNPREVTMKKGDVLTLLSSINKDWWKVEAADHQGIVPAVYVRRLAH [S14N] | 0.014 ± 0.36 |
| EQRVMALYDFQARVPREVTMKKGDVLTLLSSINKDWWKVEAADHQGIVPAVYVRRLAH [S14V] | -0.677 ± 0.26 |
| EQRVMALYDFQARIPREVTMKKGDVLTLLSSINKDWWKVEAADHQGIVPAVYVRRLAH [S14I] | -0.276 ± 0.33 |
| EQRVMALYDFQARQPREVTMKKGDVLTLLSSINKDWWKVEAADHQGIVPAVYVRRLAH [S14Q] | -0.769 ± 0.26 |
| EQRVMALYDFQARTPREVTMKKGDVLTLLSSINKDWWKVEAADHQGIVPAVYVRRLAH [S14T] | -0.069 ± 0.094 |
| EQRVMALYDFQARHPREVTMKKGDVLTLLSSINKDWWKVEAADHQGIVPAVYVRRLAH [S14H] | -0.292 ± 0.28 |
| EQRVMALYDFQARSAREVTMKKGDVLTLLSSINKDWWKVEAADHQGIVPAVYVRRLAH [P15A] | -0.252 ± 0.11 |
| EQRVMALYDFQARSTREVTMKKGDVLTLLSSINKDWWKVEAADHQGIVPAVYVRRLAH [P15T] | -0.293 ± 0.23 |
| EQRVMALYDFQARSYREVTMKKGDVLTLLSSINKDWWKVEAADHQGIVPAVYVRRLAH [P15Y] | 0.325 ± 0.43 |
| EQRVMALYDFQARSSREVTMKKGDVLTLLSSINKDWWKVEAADHQGIVPAVYVRRLAH [P15S] | -0.178 ± 0.093 |
| EQRVMALYDFQARSVREVTMKKGDVLTLLSSINKDWWKVEAADHQGIVPAVYVRRLAH [P15V] | -0.561 ± 0.15 |
| EQRVMALYDFQARSDREVTMKKGDVLTLLSSINKDWWKVEAADHQGIVPAVYVRRLAH [P15D] | 0.163 ± 0.16 |
| EQRVMALYDFQARSKREVTMKKGDVLTLLSSINKDWWKVEAADHQGIVPAVYVRRLAH [P15K] | 0.089 ± 0.17 |
| EQRVMALYDFQARSRREVTMKKGDVLTLLSSINKDWWKVEAADHQGIVPAVYVRRLAH [P15R] | -0.529 ± 0.14 |

| Variant | abundance fitness |
| --- | --- |
| EQRVMALYDFQARSEREVTMKKGDVLTLLSSINKDWWKVEAADHQGIVPAVYVRRLAH [P15E] | -0.077 ± 0.17 |
| EQRVMALYDFQARSCREVTMKKGDVLTLLSSINKDWWKVEAADHQGIVPAVYVRRLAH [P15C] | -0.411 ± 0.25 |
| EQRVMALYDFQARSLREVTMKKGDVLTLLSSINKDWWKVEAADHQGIVPAVYVRRLAH [P15L] | -0.705 ± 0.2 |
| EQRVMALYDFQARSGREVTMKKGDVLTLLSSINKDWWKVEAADHQGIVPAVYVRRLAH [P15G] | -0.46 ± 0.1 |
| EQRVMALYDFQARSPREATMKKGDVLTLLSSINKDWWKVEAADHQGIVPAVYVRRLAH [V18A] | -0.376 ± 0.13 |
| EQRVMALYDFQARSPREFTMKKGDVLTLLSSINKDWWKVEAADHQGIVPAVYVRRLAH [V18F] | -0.339 ± 0.25 |
| EQRVMALYDFQARSPREKTMKKGDVLTLLSSINKDWWKVEAADHQGIVPAVYVRRLAH [V18K] | -0.418 ± 0.17 |
| EQRVMALYDFQARSPREWTMKKGDVLTLLSSINKDWWKVEAADHQGIVPAVYVRRLAH [V18W] | -1.03 ± 0.23 |
| EQRVMALYDFQARSPREETMKKGDVLTLLSSINKDWWKVEAADHQGIVPAVYVRRLAH [V18E] | -0.784 ± 0.26 |
| EQRVMALYDFQARSPREPTMKKGDVLTLLSSINKDWWKVEAADHQGIVPAVYVRRLAH [V18P] | -0.71 ± 0.33 |
| EQRVMALYDFQARSPREQTMKKGDVLTLLSSINKDWWKVEAADHQGIVPAVYVRRLAH [V18Q] | -0.656 ± 0.42 |
| EQRVMALYDFQARSPREGTMKKGDVLTLLSSINKDWWKVEAADHQGIVPAVYVRRLAH [V18G] | -0.587 ± 0.15 |
| EQRVMALYDFQARSPREMTMKKGDVLTLLSSINKDWWKVEAADHQGIVPAVYVRRLAH [V18M] | -0.33 ± 0.21 |
| EQRVMALYDFQARSPRELTMKKGDVLTLLSSINKDWWKVEAADHQGIVPAVYVRRLAH [V18L] | 0.138 ± 0.1 |
| EQRVMALYDFQARSPRECTMKKGDVLTLLSSINKDWWKVEAADHQGIVPAVYVRRLAH [V18C] | -0.266 ± 0.21 |
| EQRVMALYDFQARSPRERTMKKGDVLTLLSSINKDWWKVEAADHQGIVPAVYVRRLAH [V18R] | -0.817 ± 0.16 |
| EQRVMALYDFQACSPREVTMKKGDVLTLLSSINKDWWKVEAADHQGIVPAVYVRRLAH [R13C] | -0.316 ± 0.23 |
| EQRVMALYDFQASSPREVTMKKGDVLTLLSSINKDWWKVEAADHQGIVPAVYVRRLAH [R13S] | -0.221 ± 0.15 |
| EQRVMALYDFQAMSPREVTMKKGDVLTLLSSINKDWWKVEAADHQGIVPAVYVRRLAH [R13M] | -0.751 ± 0.26 |
| EQRVMALYDFQAGSPREVTMKKGDVLTLLSSINKDWWKVEAADHQGIVPAVYVRRLAH [R13G] | -0.527 ± 0.079 |
| EQRVMALYDFQAKSPREVTMKKGDVLTLLSSINKDWWKVEAADHQGIVPAVYVRRLAH [R13K] | -0.414 ± 0.26 |
| EQRVMALYDFQAVSPREVTMKKGDVLTLLSSINKDWWKVEAADHQGIVPAVYVRRLAH [R13V] | -0.867 ± 0.13 |
